Measurements reported in US20250043028A1 (Hoffmann-La Roche, published 2025).

B1: “2+1 IgG scFab, wt” (anti-MCSP/anti-huCD3) (bispecific antibody)
chain 1: DIVLTQSPSSLSASLGDRVTISCSASQGIRNYLNWYQQRPDGTVKLLIYYTSSLHSGVPSRFSGSGSGTDYSLTISNLEPEDIATYYCQQYSKLPWTFGGGTKLEIKRTVAAPSVFIFPPSDEQLKSGTASVVCLLNNFYPREAKVQWKVDNALQSGNSQESVTEQDSKDSTYSLSSTLTLSKADYEKHKVYACEVTHQGLSSPVTKSFNRGEC
chain 2: not shown
chain 3: not shown
notes: Wild-type Fc domain; vectors transfected 1:2:1 (heavy chain : light chain : heavy chain-scFab); also called Fc-wt; copies: 2 + 1 + 1
B2: “2+1 IgG Crossfab, inverted”; CL/CH1 exchange (CH1A1A/V9) (anti-CEA/anti-huCD3) (bispecific antibody)
chain 1: QVQLVQSGAEVKKPGASVKVSCKASGYTFTEFGMNWVRQAPGQGLEWMGWINTKTGEATYVEEFKGRVTFTTDTSTSTAYMELRSLRSDDTAVYYCARWDFAYYVEAMDYWGQGTTVTVSSASTKGPSVFPLAPSSKSTSGGTAALGCLVKDYFPEPVTVSWNSGALTSGVHTFPAVLQSSGLYSLSSVVTVPSSSLGTQTYICNVNHKPSNTKVDKKVEPKSCDKTHTCPPCPAPEAAGGPSVFLFPPKPKDTLMISRTPEVTCVVVDVSHEDPEVKFNWYVDGVEVHNAKTKPREEQYNSTYRVVSVLTVLHQDWLNGKEYKCKVSNKALGAPIEKTISKAKGQPREPQVCTLPPSRDELTKNQVSLSCAVKGFYPSDIAVEWESNGQPENNYKTTPPVLDSDGSFFLVSKLTVDKSRWQQGNVFSCSVMHEALHNHYTQKSLSLSPGK
chain 2: DIQMTQSPSSLSASVGDRVTITCKASAAVGTYVAWYQQKPGKAPKLLIYSASYRKRGVPSRFSGSGSGTDFTLTISSLQPEDFATYYCHQYYTYPLFTFGQGTKLEIKRTVAAPSVFIFPPSDEQLKSGTASVVCLLNNFYPREAKVQWKVDNALQSGNSQESVTEQDSKDSTYSLSSTLTLSKADYEKHKVYACEVTHQGLSSPVTKSFNRGEC
chain 3: DIQMTQSPSSLSASVGDRVTITCRASQDIRNYLNWYQQKPGKAPKLLIYYTSRLESGVPSRFSGSGSGTDYTLTISSLQPEDFATYYCQQGNTLPWTFGQGTKVEIKSSASTKGPSVFPLAPSSKSTSGGTAALGCLVKDYFPEPVTVSWNSGALTSGVHTFPAVLQSSGLYSLSSVVTVPSSSLGTQTYICNVNHKPSNTKVDKKVEPKSC
chain 4: not shown
notes: also called CL/CH1-exchange construct

Legend:
HuFcγRIIIa-V158-K6H6 [1] = molecular target: T1, HuFcγRIIIa-V158-K6H6 (human, UniProt P08637 17-208); test: SPR Biacore T100, 25 °C, kinetic fit, one concentration (1000 nM); receptor captured via anti-Penta His
T1 construct: Captured on an anti-Penta His antibody on a CM5 chip; also called human FcγRIIIa-V158; human FcγRIIIa; not shown: K6H6 tag
Procedure: (§1) For analyzing interaction of different Fc-variants with human FcγRIIIa-V158 and murine FcγRIV direct coupling of around 6,500 resonance units (RU) of the anti-Penta His antibody (Qiagen) is performed on a CM5 chip at pH 5.0 using the standard amine coupling kit (Biacore, Freiburg/Germany). HuFcγRIIIa-V158-K6H6 and muFcγRIV-aviHis-biotin are captured for 60 s at 4 and 10 nM respectively.
(§2) Constructs with different Fc-mutations are passed through the flow cells for 120 s at a concentration of 1000 nM with a flow rate of 30 μl/min. The dissociation is monitored for 220 s. Bulk refractive index differences are corrected for by subtracting the response obtained in a reference flow cell. Here, the Fc-variants are flown over a surface with immobilized anti-Penta His antibody but on which HBS-EP has been injected rather than HuFcγRIIIa-V158-K6H6 or muFcγRIV-aviHis-biotin. Affinity for human FcγRIIIa-V158 and murine FcγRIV was determined for wild-type Fc using a concentration range from 500-4000 nM.
(§3) The steady state response was used to derive the dissociation constant KD by non-linear curve fitting of the Langmuir binding isotherm. Kinetic constants were derived using the Biacore T100 Evaluation Software (vAA, Biacore AB, Uppsala/Sweden), to fit rate equations for 1:1 Langmuir binding by numerical integration.

HuFcγRIIIa-V158-K6H6 [2] = molecular target: T1, HuFcγRIIIa-V158-K6H6; test: SPR Biacore T100, 25 °C, steady state; receptor captured via anti-Penta His, construct 500-4000 nM
Procedure: as §1, §2, §3

muFcγRIV-aviHis-biotin [3] = molecular target: T2, muFcγRIV-aviHis-biotin (murine, UniProt A0A0B4J1G0 21-203, Biotin on the lysine of the Avi tag (tag left out of the letters); C-terminal His tag used for capture by the anti-Penta His antibody); test: as above
T2 construct: Captured on an anti-Penta His antibody on a CM5 chip; also called murine FcγRIV; not shown: Avi-His tag (and any linker to it)
T2 sequence: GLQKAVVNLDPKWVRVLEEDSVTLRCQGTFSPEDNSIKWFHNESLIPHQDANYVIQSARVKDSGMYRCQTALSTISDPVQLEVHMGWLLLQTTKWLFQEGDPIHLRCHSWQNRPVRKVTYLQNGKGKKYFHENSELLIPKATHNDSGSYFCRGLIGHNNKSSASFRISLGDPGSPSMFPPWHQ
Procedure: as §1, §2, §3

HuFcγRIIIa-V158-K6H6 [4] = molecular target: T1, HuFcγRIIIa-V158-K6H6; test: SPR Biacore T100, 25 °C, kinetic fit (value in brackets, not explained); receptor captured via anti-Penta His
Procedure: as §1, §2, §3

muFcγRIV-aviHis-biotin [5] = molecular target: T2, muFcγRIV-aviHis-biotin; test: SPR Biacore T100, 25 °C, kinetic fit; receptor captured via anti-Penta His
Procedure: as §1, §2, §3

[6] = molecular target: T3, human CD3 expressed on Jurkat cells (human, UniProt P07766 23-207); test: flow cytometry on Jurkat cells; CL/CH1 exchange; CD3 on Jurkat cells
T3 construct: CD3 as part of the T cell receptor complex on Jurkat cells; also called huCD3; human CD3 on cells
Procedure: (§4) Binding of the different bispecific constructs to CD3 on Jurkat cells (ATCC #TIB-152), and the respective tumor antigen on target cells, was determined by FACS. Briefly, cells were harvested, counted and checked for viability. 0.15-0.2 million cells per well (in PBS containing 0.1% BSA; 90 μl) were plated in a round-bottom 96-well plate and incubated with the indicated concentration of the bispecific constructs and corresponding IgG controls (10 μl) for 30 min at 4° C. For a better comparison, all constructs and IgG controls were normalized to same molarity. […] Bound constructs were detected using a FACSCantoII (Software FACS Diva). The “(scFv)₂” molecule was detected using a FITC-conjugated anti-His antibody (Lucerna, #RHIS-45F-Z). […] Unless otherwise indicated, cells were fixed with 100 μl/well fixation buffer (BD #554655) for 15 min at 4° C. in the dark, centrifuged for 6 min at 400×g and kept in 200 μl/well PBS containing 0.1% BSA until the samples were measured with FACS CantoII. EC50 values were calculated using the GraphPad Prism software.
(§5) As a control, the equivalent maximum concentration of the corresponding IgGs and the background staining due to the labeled 2ndary antibody (goat anti-human FITC-conjugated AffiniPure F(ab′)₂ Fragment, Fcγ Fragment-specific, Jackson Immuno Research Lab #109-096-098) were assessed as well.

[7] = molecular target: T4, human CEA expressed on tumor cells (LS-174T, MKN-45, MC38-huCEA) (human, UniProt P06731 35-685); test: flow cytometry on LS-174T cells; CL/CH1 exchange; CEA on LS-174T cells
T4 construct: whole, on cells; also called Carcinoembryonic antigen
T4 sequence (looked up): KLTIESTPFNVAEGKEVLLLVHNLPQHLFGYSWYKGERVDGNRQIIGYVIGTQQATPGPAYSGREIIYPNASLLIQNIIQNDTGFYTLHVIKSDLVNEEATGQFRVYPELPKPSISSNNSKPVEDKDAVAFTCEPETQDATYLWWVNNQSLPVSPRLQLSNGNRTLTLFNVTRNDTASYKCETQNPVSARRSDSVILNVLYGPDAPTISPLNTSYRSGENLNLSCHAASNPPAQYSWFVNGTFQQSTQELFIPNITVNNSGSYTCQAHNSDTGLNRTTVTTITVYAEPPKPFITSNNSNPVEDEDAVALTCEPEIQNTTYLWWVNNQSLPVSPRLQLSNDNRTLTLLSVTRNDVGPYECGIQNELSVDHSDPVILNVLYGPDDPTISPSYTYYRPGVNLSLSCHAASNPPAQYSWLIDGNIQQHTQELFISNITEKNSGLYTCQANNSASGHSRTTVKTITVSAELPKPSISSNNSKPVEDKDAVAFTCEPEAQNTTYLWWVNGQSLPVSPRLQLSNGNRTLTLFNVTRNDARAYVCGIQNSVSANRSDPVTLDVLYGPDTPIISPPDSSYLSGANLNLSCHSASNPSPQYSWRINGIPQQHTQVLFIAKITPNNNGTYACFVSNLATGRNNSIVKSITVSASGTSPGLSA
Procedure: as §4, §5

[8] = molecular target: T4, human CEA expressed on tumor cells …; test: cell-based or functional assay

T1 sequence (P08637 17-208 F176V): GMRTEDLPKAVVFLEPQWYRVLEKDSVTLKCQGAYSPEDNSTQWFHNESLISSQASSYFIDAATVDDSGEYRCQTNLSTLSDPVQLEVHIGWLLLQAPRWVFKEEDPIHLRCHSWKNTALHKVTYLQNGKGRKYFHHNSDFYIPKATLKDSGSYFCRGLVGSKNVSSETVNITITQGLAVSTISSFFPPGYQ
T3 sequence (P07766 23-207 limits assumed): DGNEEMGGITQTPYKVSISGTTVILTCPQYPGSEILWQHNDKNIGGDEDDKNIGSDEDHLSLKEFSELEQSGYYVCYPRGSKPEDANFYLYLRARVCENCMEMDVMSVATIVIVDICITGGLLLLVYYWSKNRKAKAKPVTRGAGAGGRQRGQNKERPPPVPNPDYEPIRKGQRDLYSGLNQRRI

Row | Binder | Kd (HuFcγRIIIa-V158-K6H6 [1]) | Kd (HuFcγRIIIa-V158-K6H6 [2]) | Kd (muFcγRIV-aviHis-biotin [3]) | Kd (HuFcγRIIIa-V158-K6H6 [4]) | Kd (muFcγRIV-aviHis-biotin [5]) | EC50 [6] | EC50 [7] | EC50 of killing (LDH release) of LS-174T cells, human PBMCs, E:T 10:1, 28 h [8] | EC50 of killing (LDH release) of MKN-45 cells, human PBMCs, E:T 10:1, 28 h [8]
1 | B1 | 600 nM | 3470 nM | 1500 nM | 1200 nM | 576 nM | – | – | – | –
2 | B2 | – | – | – | – | – | 3.9 nM | 6.7 nM | 0.673 nM | 0.115 nM
